# Numbered stars: 1 amine (or outer) side, 2 acyl side, 3 side chain; on linkers, the order of the positions; unused ones are H or OH. Bridge positions count the residues as written; N and C are the ends. Side chains are listed from the residue outwards. Ends that are not written are not given here. * marks the point of attachment. C20 diacid = O=C(O)CCCCCCCCCCCCCCCCCCC(=O)*; γGlu = O=C(O)[C@H](CCC(=O)[*:2])N[*:1]; AEEA = NCCOCCOCC(=O)O
# T1: rat calcitonin receptor (rat, UniProt P32214 25-516)
# T1 construct: whole, on cells; Membranes of transiently transfected BHK tk'ts 13 cells; also called rCTR; rat calcitonin (a) receptor
# T1 sequence (looked up): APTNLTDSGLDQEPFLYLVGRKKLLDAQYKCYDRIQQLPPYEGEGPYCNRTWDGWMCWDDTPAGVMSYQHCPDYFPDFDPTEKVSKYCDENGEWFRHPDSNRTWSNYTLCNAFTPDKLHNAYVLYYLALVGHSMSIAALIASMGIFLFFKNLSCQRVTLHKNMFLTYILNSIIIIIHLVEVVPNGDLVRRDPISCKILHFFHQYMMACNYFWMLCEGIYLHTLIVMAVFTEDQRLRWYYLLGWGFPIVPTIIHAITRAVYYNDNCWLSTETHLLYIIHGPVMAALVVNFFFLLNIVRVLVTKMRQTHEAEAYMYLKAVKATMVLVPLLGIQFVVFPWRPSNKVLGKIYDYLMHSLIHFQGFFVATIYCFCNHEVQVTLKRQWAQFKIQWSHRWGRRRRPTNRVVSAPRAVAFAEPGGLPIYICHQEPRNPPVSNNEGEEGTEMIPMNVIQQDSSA
# T2: human calcitonin receptor (human, UniProt P30988 25-474)
# T2 construct: whole, on cells; Membranes of stably transfected cells; also called hCTR; hCT
# T2 sequence (looked up): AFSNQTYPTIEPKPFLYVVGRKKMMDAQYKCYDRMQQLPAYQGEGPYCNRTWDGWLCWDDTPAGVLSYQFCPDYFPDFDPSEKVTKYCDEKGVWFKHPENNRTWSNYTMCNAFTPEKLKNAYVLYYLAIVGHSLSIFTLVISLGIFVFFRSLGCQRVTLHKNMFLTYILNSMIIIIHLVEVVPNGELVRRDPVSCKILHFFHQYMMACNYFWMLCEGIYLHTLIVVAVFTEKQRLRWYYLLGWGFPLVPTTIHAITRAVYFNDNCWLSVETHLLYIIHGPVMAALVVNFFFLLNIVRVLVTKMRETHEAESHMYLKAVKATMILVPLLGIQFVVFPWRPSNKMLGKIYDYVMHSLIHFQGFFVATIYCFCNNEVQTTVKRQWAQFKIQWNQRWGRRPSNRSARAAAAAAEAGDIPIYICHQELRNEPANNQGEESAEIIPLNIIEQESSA
# T3: rat amylin receptor (rat calcitonin receptor + rat RAMP 3) (rat, UniProt P32214 25-516; Q9JJ73 23-147)
# T3 construct: whole, on cells; Membranes of transiently transfected BHK tk'ts 13 cells; also called rAmylin-R; rat amylin 3(a) receptor
# T3 sequence (looked up) 1: T1 sequence (looked up)
# T3 sequence (looked up) 2: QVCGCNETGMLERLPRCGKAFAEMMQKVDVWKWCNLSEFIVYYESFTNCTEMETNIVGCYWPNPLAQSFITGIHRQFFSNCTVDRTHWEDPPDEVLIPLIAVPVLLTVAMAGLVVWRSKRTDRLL
# B1: N^ε1-[2-[2-[2-[[2-[2-[2-[[(4S)-4-carboxy-4-(19-carboxynonadecanoylamino)butanoyl]amino]ethoxy]ethoxy]acetyl]amino]ethoxy]ethoxy]acetyl]-[Arg17,Pro21,Pro27,Arg34 … (peptide)
# peptide: K([AEEA-AEEA-γGlu-C20 diacid])CNTATCATQRLANFLRHSSPNFGAIPSSTNVGRNTY-NH2
# modifications: disulfide 2-7; N-terminus assumed
# SMILES: CC[C@H](C)[C@H](NC(=O)[C@H](C)NC(=O)CNC(=O)[C@H](Cc1ccccc1)NC(=O)[C@H](CC(N)=O)NC(=O)[C@@H]1CCCN1C(=O)[C@H](CO)NC(=O)[C@H](CO)NC(=O)[C@H](Cc1c[nH]cn1)NC(=O)[C@H](CCCNC(=N)N)NC(=O)[C@H](CC(C)C)NC(=O)[C@H](Cc1ccccc1)NC(=O)[C@H](CC(N)=O)NC(=O)[C@H](C)NC(=O)[C@H](CC(C)C)NC(=O)[C@H](CCCNC(=N)N)NC(=O)[C@H](CCC(N)=O)NC(=O)[C@@H](NC(=O)[C@H](C)NC(=O)[C@@H]1CSSC[C@H](NC(=O)[C@@H](N)CCCCNC(=O)COCCOCCNC(=O)COCCOCCNC(=O)CC[C@H](NC(=O)CCCCCCCCCCCCCCCCCCC(=O)O)C(=O)O)C(=O)N[C@@H](CC(N)=O)C(=O)N[C@@H]([C@@H](C)O)C(=O)N[C@@H](C)C(=O)N[C@@H]([C@@H](C)O)C(=O)N1)[C@@H](C)O)C(=O)N1CCC[C@H]1C(=O)N[C@@H](CO)C(=O)N[C@@H](CO)C(=O)N[C@H](C(=O)N[C@@H](CC(N)=O)C(=O)N[C@H](C(=O)NCC(=O)N[C@@H](CCCNC(=N)N)C(=O)N[C@@H](CC(N)=O)C(=O)N[C@H](C(=O)N[C@@H](Cc1ccc(O)cc1)C(N)=O)[C@@H](C)O)C(C)C)[C@@H](C)O
# notes: Synthetic acylated analogue of human amylin; also called compound 95
# B2: N^ε1-[2-[2-[2-[[2-[2-[2-[[(4S)-4-carboxy-4-(19-carboxynonadecanoylamino)butanoyl]amino]ethoxy]ethoxy]acetyl]amino]ethoxy]ethoxy]acetyl]-[Arg17,Pro21,Pro27,His34 … (peptide)
# peptide: K([AEEA-AEEA-γGlu-C20 diacid])CNTATCATQRLANFLRHSSPNFGAIPSSTNVGHNTY-NH2
# modifications: disulfide 2-7; N-terminus assumed
# SMILES: CC[C@H](C)[C@H](NC(=O)[C@H](C)NC(=O)CNC(=O)[C@H](Cc1ccccc1)NC(=O)[C@H](CC(N)=O)NC(=O)[C@@H]1CCCN1C(=O)[C@H](CO)NC(=O)[C@H](CO)NC(=O)[C@H](Cc1c[nH]cn1)NC(=O)[C@H](CCCNC(=N)N)NC(=O)[C@H](CC(C)C)NC(=O)[C@H](Cc1ccccc1)NC(=O)[C@H](CC(N)=O)NC(=O)[C@H](C)NC(=O)[C@H](CC(C)C)NC(=O)[C@H](CCCNC(=N)N)NC(=O)[C@H](CCC(N)=O)NC(=O)[C@@H](NC(=O)[C@H](C)NC(=O)[C@@H]1CSSC[C@H](NC(=O)[C@@H](N)CCCCNC(=O)COCCOCCNC(=O)COCCOCCNC(=O)CC[C@H](NC(=O)CCCCCCCCCCCCCCCCCCC(=O)O)C(=O)O)C(=O)N[C@@H](CC(N)=O)C(=O)N[C@@H]([C@@H](C)O)C(=O)N[C@@H](C)C(=O)N[C@@H]([C@@H](C)O)C(=O)N1)[C@@H](C)O)C(=O)N1CCC[C@H]1C(=O)N[C@@H](CO)C(=O)N[C@@H](CO)C(=O)N[C@H](C(=O)N[C@@H](CC(N)=O)C(=O)N[C@H](C(=O)NCC(=O)N[C@@H](Cc1c[nH]cn1)C(=O)N[C@@H](CC(N)=O)C(=O)N[C@H](C(=O)N[C@@H](Cc1ccc(O)cc1)C(N)=O)[C@@H](C)O)C(C)C)[C@@H](C)O
# notes: Synthetic acylated analogue of human amylin; also called compound 97
# B3: N^ε1-[2-[2-[2-[[2-[2-[2-[[(4S)-4-carboxy-4-(19-carboxynonadecanoylamino)butanoyl]amino]ethoxy]ethoxy]acetyl]amino]ethoxy]ethoxy]acetyl]-[Arg17,Pro21,Pro27,Pro31 … (peptide)
# peptide: K([AEEA-AEEA-γGlu-C20 diacid])CNTATCATQRLANFLRHSSPNFGAIPSSTPVGSNTY-NH2
# modifications: disulfide 2-7; N-terminus assumed
# SMILES: CC[C@H](C)[C@H](NC(=O)[C@H](C)NC(=O)CNC(=O)[C@H](Cc1ccccc1)NC(=O)[C@H](CC(N)=O)NC(=O)[C@@H]1CCCN1C(=O)[C@H](CO)NC(=O)[C@H](CO)NC(=O)[C@H](Cc1c[nH]cn1)NC(=O)[C@H](CCCNC(=N)N)NC(=O)[C@H](CC(C)C)NC(=O)[C@H](Cc1ccccc1)NC(=O)[C@H](CC(N)=O)NC(=O)[C@H](C)NC(=O)[C@H](CC(C)C)NC(=O)[C@H](CCCNC(=N)N)NC(=O)[C@H](CCC(N)=O)NC(=O)[C@@H](NC(=O)[C@H](C)NC(=O)[C@@H]1CSSC[C@H](NC(=O)[C@@H](N)CCCCNC(=O)COCCOCCNC(=O)COCCOCCNC(=O)CC[C@H](NC(=O)CCCCCCCCCCCCCCCCCCC(=O)O)C(=O)O)C(=O)N[C@@H](CC(N)=O)C(=O)N[C@@H]([C@@H](C)O)C(=O)N[C@@H](C)C(=O)N[C@@H]([C@@H](C)O)C(=O)N1)[C@@H](C)O)C(=O)N1CCC[C@H]1C(=O)N[C@@H](CO)C(=O)N[C@@H](CO)C(=O)N[C@H](C(=O)N1CCC[C@H]1C(=O)N[C@H](C(=O)NCC(=O)N[C@@H](CO)C(=O)N[C@@H](CC(N)=O)C(=O)N[C@H](C(=O)N[C@@H](Cc1ccc(O)cc1)C(N)=O)[C@@H](C)O)C(C)C)[C@@H](C)O
# notes: Synthetic acylated analogue of human amylin; also called compound 96
# B4: N^ε1-[2-[2-[2-[[2-[2-[2-[[(4S)-4-carboxy-4-(19-carboxynonadecanoylamino)butanoyl]amino]ethoxy]ethoxy]acetyl]amino]ethoxy]ethoxy]acetyl]-[Arg17,Pro21,Pro27,Pro34 … (peptide)
# peptide: K([AEEA-AEEA-γGlu-C20 diacid])CNTATCATQRLANFLRHSSPNFGAIPSSTNVGPNTY-NH2
# modifications: disulfide 2-7; N-terminus assumed
# SMILES: CC[C@H](C)[C@H](NC(=O)[C@H](C)NC(=O)CNC(=O)[C@H](Cc1ccccc1)NC(=O)[C@H](CC(N)=O)NC(=O)[C@@H]1CCCN1C(=O)[C@H](CO)NC(=O)[C@H](CO)NC(=O)[C@H](Cc1c[nH]cn1)NC(=O)[C@H](CCCNC(=N)N)NC(=O)[C@H](CC(C)C)NC(=O)[C@H](Cc1ccccc1)NC(=O)[C@H](CC(N)=O)NC(=O)[C@H](C)NC(=O)[C@H](CC(C)C)NC(=O)[C@H](CCCNC(=N)N)NC(=O)[C@H](CCC(N)=O)NC(=O)[C@@H](NC(=O)[C@H](C)NC(=O)[C@@H]1CSSC[C@H](NC(=O)[C@@H](N)CCCCNC(=O)COCCOCCNC(=O)COCCOCCNC(=O)CC[C@H](NC(=O)CCCCCCCCCCCCCCCCCCC(=O)O)C(=O)O)C(=O)N[C@@H](CC(N)=O)C(=O)N[C@@H]([C@@H](C)O)C(=O)N[C@@H](C)C(=O)N[C@@H]([C@@H](C)O)C(=O)N1)[C@@H](C)O)C(=O)N1CCC[C@H]1C(=O)N[C@@H](CO)C(=O)N[C@@H](CO)C(=O)N[C@H](C(=O)N[C@@H](CC(N)=O)C(=O)N[C@H](C(=O)NCC(=O)N1CCC[C@H]1C(=O)N[C@@H](CC(N)=O)C(=O)N[C@H](C(=O)N[C@@H](Cc1ccc(O)cc1)C(N)=O)[C@@H](C)O)C(C)C)[C@@H](C)O
# notes: Synthetic acylated analogue of human amylin; also called compound 98
# Target: T1, rat calcitonin receptor
# Experiment: ratio of IC50 on rat calcitonin receptor to IC50 on rat amylin receptor (reference m40)
row,Binder,Ratio rCT/rAmylin binding
1,B1,71.3
2,B2,71.1
3,B3,118
4,B4,176

# Target: T2, human calcitonin receptor
# Experiment: ratio of IC50 on human calcitonin receptor to IC50 on human amylin receptor (reference m42), SPA competition
# Method: The resulting pellet was resuspended, homogenized and centrifuged (20.000 rpm, 15 min) in a buffer containing 20 mM Na-HEPES and 0.1 mM EDTA (pH 7.4, buffer 2). The resulting pellet was resuspended in buffer 2 and protein concentration was measured (BCA protein Assay, Pierce). The homogenate was kept cold during the whole procedure. The membranes were kept at −80° C. until use. The assay was performed in a 384 well Optiplate (PerkinElmer) in a total volume of 40 ul. Membranes were mixed with SPA beads. Final concentration of membranes 35 ng/μL final and SPA beads was 0.05 mg/well. Test-compounds were dissolved in DMSO and further diluted in assay buffer (50 mM Hepes, pH 7.4, 1 mM CaCl2, 5 mM MgCl₂, 0.1% OA and 0.02% Tween20). […] The final mixture was incubated with shaking at 400 rpm for 120 min at 25° C. prior to centrifugation (1500 rpm, 10 min). Samples were analyzed on TopCounter™ (Packard). The IC₅₀ was calculated using (one site binding competition analysis) GraphPad Prism5 as a measure of receptor affinity.
# Membranes were prepared in the following way; the cells were rinsed with PBS and incubated with Versene for approximately 5 min before harvesting. The cells were flushed with PBS and the cell-suspension was centrifuged for 5 min at 1000 rpm. Cells were homogenized (Ultrathurrax) in a buffer containing 20 mM Na-HEPES and 10 mM EDTA (pH 7.4) and centrifuged at 20.000 rpm for 15 min. The resulting pellet was resuspended, homogenized and centrifuged (20.000 rpm, 15 min) in a buffer containing 20 mM Na-HEPES and 0.1 mM EDTA (pH 7.4, buffer 2). The resulting pellet was resuspended in buffer 2 and protein concentration was measured (BCA protein Assay, Pierce). The homogenate was kept cold during the whole procedure. The membranes were kept at −80° C. until use. Assay was performed in a 384 well Optiplate (PerkinElmer) in a total volume of 40 ul. Membranes were mixed with SPA beads.
row,Binder,Ratio hCT/hAmylin binding
1,B1,63.4
2,B2,104
3,B3,79.6
4,B4,74.1

# Target: T1, rat calcitonin receptor
# Experiment: SPA competition with 125I-calcitonin on membranes of BHK tk'ts 13 cells with rat calcitonin receptor (Assay VIII)
row,Binder,IC50
1,B1,388 nM
2,B2,159 nM
3,B3,62.2 nM
4,B4,24.1 nM

# Target: T3, rat amylin receptor (rat calcitonin …)
# Experiment: SPA competition with 125I-rat amylin on membranes of BHK tk'ts 13 cells with rat calcitonin receptor + rat RAMP3 (Assay VI)
row,Binder,IC50
1,B1,5.45 nM
2,B2,2.24 nM
3,B3,0.529 nM
4,B4,0.137 nM

# Source: patent publication US20140087995A1 (published 2014)
